Assay results: patent publication US20230295559A1 (PIVOT BIO, published 2023)

Biological target: T1, glutamine synthetase GlnA (Paenibacillus polymyxa CI41)
T1 chain: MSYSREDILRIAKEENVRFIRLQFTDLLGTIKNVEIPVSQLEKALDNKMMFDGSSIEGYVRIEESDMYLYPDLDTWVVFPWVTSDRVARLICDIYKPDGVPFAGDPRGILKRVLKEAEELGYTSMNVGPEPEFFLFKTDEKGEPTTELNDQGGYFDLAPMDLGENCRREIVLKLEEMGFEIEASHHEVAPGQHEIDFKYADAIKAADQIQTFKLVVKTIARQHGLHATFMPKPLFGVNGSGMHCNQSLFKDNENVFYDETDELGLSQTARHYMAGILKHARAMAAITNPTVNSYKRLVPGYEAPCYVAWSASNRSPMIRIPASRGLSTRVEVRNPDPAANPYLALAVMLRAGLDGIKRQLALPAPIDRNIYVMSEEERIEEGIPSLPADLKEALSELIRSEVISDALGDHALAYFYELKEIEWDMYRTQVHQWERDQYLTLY
Assay: cell-based or functional assay

overall nitrogenase activity (acetylene reduction assay): 5 fold
B1: GlnR with C-terminal deletion (Δ113-137) (other)
chain: MGDEIRRNMALFPIGIVMKLTDLSARQIRYYEQHNLIVPARTSGNQRLFSFNDVERLLEIKALIEKGVNIAGIKQVMNPVTKESEEATVITADTEVKRREMSDTQLHRLLKQ
